This is an account of results in US20200325187A1 (Genentech, published 2020).

This assay addresses T1, VEGF-D (human, UniProt O43915 93-201, limits assumed).
T1 sequence (looked up): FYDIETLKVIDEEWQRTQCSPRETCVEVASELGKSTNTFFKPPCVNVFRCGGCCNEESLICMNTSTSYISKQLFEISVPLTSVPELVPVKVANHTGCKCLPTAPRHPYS
Kind of assay: competition ELISA: VEGF-D coated, constant Flt-4 receptor, peptide titrated. On the technique in general: ELISA stands for enzyme-linked immunosorbent assay.

B1: VEGF_CKP9.54.90 (designed binder)
chain: GCNIMLPFWGCGRDFECLAGCVCQYYQSCG
As for B1, the binding result is given as “no binding (tested: 5 µM)”.
